Publication PMC6829862, “Gγ and Gα Identity Dictate a G-Protein Heterotrimer Plasma Membrane Targeting” (Cells, 2019)

Biological target: T1, mCherry–Gβ1γ2 dimer (UniProt P62873 1-340; P59768 1-71, 20-carbon geranylgeranyl lipid on the cysteine of the C-terminal CaaX motif (said of Gγ2 in general))
T1 construct: Gβ1 subunit; cDNA in pcDNA3.1+ from UMR cDNA Resource Center; FP cloned at the N-terminus; Gγ2 subunit; source: HEK 293, transiently co-transfected (mCherry–Gβ1 and Gγ2), in living cells; not shown: mCherry, N-terminal, kept
Test: FRET or BRET; FLIM-FRET in living transiently transfected HEK 293 cells at 37 °C; donor Citrine in Gα, acceptor mCherry on Gβ1 with the appropriate Gγ; efficiency E = 1 − τda/τd from the short lifetime component τ1 (donor alone 2.7 ± 0.1 ns), analysed only at the plasma membrane; GppNHp added to the culture did not change the signal
Conditions: partners not purified

FRET efficiency [%] | Binder
12.9 | Citrine–GαsIEK (natural protein, Gαs subunit with the conserved region Ile26–Glu27–Lys28 (G.HN.43–45) changed to three alanines; cDNA from UMR cDNA Resource Center; the L1 loop Glu71-Ser82 exchanged for the fluorescent protein as in m1; Mutations made with the Quick Change method on the Gαs fusion; also called mutant GαsIEK protein; source: HEK 293, transiently transfected; in living cells (FLIM-FRET) and in cell lysate or …) MGCLGNSKTEDQRNEEKAQREANKKAAAQLQKDKQVYRATHRLLLLGAGESGKSTIVKQMRILHVNGFNGNSDGEKATKVQDIKNNLKEAIETIVAAMSNLVPPVELANPENQFRVDYILSVMNVPDFDFPPEFYEHAKALWEDEGVRACYERSNEYQLIDCAQYFLDKIDVIKQADYVPSDQDLLRCRVLTSGIFETKFQVDKVNFHMFDVGGQRDERRKWIQCFNDVTAIIFVVASSSYNMVIREDNQTNRLQEALNLFKSIWNNRWLRTISVILFLNKQDLLAEKVLAGKSKIEDYFPEFARYTTPEDATPEPGEDPRVTRAKYFIRDEFLRISTASGDGRHYCYPHFTCAVDTENIRRVFNDCRDIIQRMHLRQYELL
50 | Citrine–Gαi3 (natural protein, cDNA in pcDNA3.1+ from UMR cDNA Resource Center; also called loop-tagged Gαi3; source: HEK 293, transiently transfected, in living cells; not shown: Citrine, internal (after residue 114), kept) MGCTLSAEDKAAVERSKMIDRNLREDGEKAAKEVKLLLLGAGESGKSTIVKQMKIIHEDGYSEDECKQYKVVVYSNTIQSIIAIIRAMGRLKIDFGEAARADDARQLFVLAGSAEEGVMTPELAGVIKRLWRDGGVQACFSRSREYQLNDSASYYLNDLDRISQSNYIPTQQDVLRTRVKTTGIVETHFTFKDLYFKMFDVGGQRSERKKWIHCFEGVTAIIFCVALSDYDLVLAEDEEMNRMHESMKLFDSICNNKWFTETSIILFLNKKDLFEEKIKRSPLTICYPEYTGSNTYEEAAAYIQCQFEDLNRRKDTKEIYTHFTCATDTKNVQFVFDAVTDVIIKNNLKECGLY
